In publication PMC4867596 one finds fold increase of the IP band over the control data, which are given here for two molecules.

The target of assay [1] is Pex19-YFP (UniProt P40855). Briefly: co-IP; HFF cells transfected with vMIA-myc and Pex19-YFP for 24 h; precipitated with GFP antibody overnight at 4 °C and Dynabeads Protein G; blot for myc and GFP; control: cells with vMIA-myc alone.
The target of assay [2] is peroxisomal MAVS of Mefs MAVS-Pex cells (UniProt Q7Z434). Briefly: co-IP; Mefs MAVS-Pex cells transfected with vMIA-myc or myc-Miro1 for 24 h; precipitated with an antibody against MAVS and Dynabeads Protein G; blot for MAVS and myc; controls: non-transfected cells, Mefs MAVS-KO cells with vMIA-myc.
Assay [3] addresses Pex19-YFP (UniProt P40855). Briefly: co-IP; HepG2 cells co-transfected with Pex19-YFP and vMIA-myc for 24 h; Pex19-YFP precipitated with GFP-Trap_M beads, 2 h at 4 °C; lysis in 10 mM Tris-HCl pH 7.5, 150 mM NaCl, 0.5 mM EDTA, 0.5% NP-40; blot for myc, Pex19 and GFP; control: cells with GFP and vMIA-myc.
For assay [4], the target named is vMIA-myc (HCMV mitochondria-localized inhibitor of apoptosis, myc-tagged) (human cytomegalovirus). The assay is described as follows: co-IP; HFF cells transfected with vMIA-myc for 24 h; precipitated with myc antibody (2 h, 4 °C) and Protein G magnetic beads; blot for myc and endogenous Pex19; control: non-transfected cells.
Chain of vMIA-myc (HCMV mitochondria-localized inhibitor of apoptosis, myc-tagged) (human cytomegalovirus) (P16778 23-487): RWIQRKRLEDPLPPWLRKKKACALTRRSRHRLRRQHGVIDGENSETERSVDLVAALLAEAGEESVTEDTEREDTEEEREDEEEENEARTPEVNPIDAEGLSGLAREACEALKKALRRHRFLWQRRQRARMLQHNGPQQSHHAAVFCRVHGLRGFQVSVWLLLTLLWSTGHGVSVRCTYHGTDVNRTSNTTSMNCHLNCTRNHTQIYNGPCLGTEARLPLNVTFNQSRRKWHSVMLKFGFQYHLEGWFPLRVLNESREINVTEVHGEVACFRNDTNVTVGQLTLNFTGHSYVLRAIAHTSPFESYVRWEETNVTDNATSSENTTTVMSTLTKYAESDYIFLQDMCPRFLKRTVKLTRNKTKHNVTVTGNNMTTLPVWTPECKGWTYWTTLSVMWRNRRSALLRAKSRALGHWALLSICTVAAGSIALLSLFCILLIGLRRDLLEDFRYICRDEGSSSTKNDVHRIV

Chain of UniProt Q7Z434 (Q7Z434 whole entry): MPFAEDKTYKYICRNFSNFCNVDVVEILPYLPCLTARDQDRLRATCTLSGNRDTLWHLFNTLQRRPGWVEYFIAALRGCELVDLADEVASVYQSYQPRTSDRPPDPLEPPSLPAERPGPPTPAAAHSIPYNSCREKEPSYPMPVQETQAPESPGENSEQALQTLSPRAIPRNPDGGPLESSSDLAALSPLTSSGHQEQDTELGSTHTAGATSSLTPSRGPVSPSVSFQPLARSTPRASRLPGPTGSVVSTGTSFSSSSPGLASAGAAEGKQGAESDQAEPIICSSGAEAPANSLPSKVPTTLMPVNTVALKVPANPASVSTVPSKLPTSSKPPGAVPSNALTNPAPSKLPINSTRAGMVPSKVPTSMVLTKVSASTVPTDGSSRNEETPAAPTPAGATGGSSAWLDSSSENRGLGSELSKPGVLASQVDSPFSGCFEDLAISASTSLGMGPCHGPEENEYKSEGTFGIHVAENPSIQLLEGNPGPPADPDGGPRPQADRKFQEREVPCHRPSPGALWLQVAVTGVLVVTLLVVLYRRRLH

Consider “vMIA-myc (HCMV mitochondria-localized inhibitor of apoptosis, myc-tagged) (natural protein)”, for which the values for the fold increase of the IP band over the control (in the assay with Pex19-YFP [1]; in assay [2]; in the assay with Pex19-YFP [3]) were 5 fold, 18 fold and 7 fold, respectively.

B1: endogenous Pex19 (natural protein)
chain: MAAAEEGCSVGAEADRELEELLESALDDFDKAKPSPAPPSTTTAPDASGPQKRSPGDTAKDALFASQEKFFQELFDSELASQATAEFEKAMKELAEEEPHLVEQFQKLSEAAGRVGSDMTSQQEFTSCLKETLSGLAKNATDLQNSSMSEEELTKAMEGLGMDEGDGEGNILPIMQSIMQNLLSKDVLYPSLKEITEKYPEWLQSHRESLPPEQFEKYQEQHSVMCKICEQFEAETPTDSETTQKARFEMVLDLMQQLQDLGHPPKELAGEMPPGLNFDLDALNLSGPPGASGEQCLIM
Regarding B1, in assay [4], the fold increase of the IP band over the control was found to be 3 fold.
